Assay results: US20160194391A1 (AstraZeneca / MedImmune, published 2016)
“And” between values parts separate entries of the source, which are not always exact repeats. Equal entries are not always repeated.

Columns and labels:
human IL-6 [1] = target: T1, human IL-6 (human, UniProt P05231 30-212); test: cell-based or functional assay
monkey IL-12 (macaque) [2] = target: T2, monkey IL-12 (macaque) (macaque, UniProt P48091 23-219; P48095 23-328); test: cell-based or functional assay
T2 sequence (looked up) 1: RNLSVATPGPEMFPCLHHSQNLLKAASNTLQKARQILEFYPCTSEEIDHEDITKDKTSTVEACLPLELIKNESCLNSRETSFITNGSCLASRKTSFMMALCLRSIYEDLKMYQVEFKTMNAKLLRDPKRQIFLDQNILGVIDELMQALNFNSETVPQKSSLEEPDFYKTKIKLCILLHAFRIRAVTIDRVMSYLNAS
T2 sequence (looked up) 2: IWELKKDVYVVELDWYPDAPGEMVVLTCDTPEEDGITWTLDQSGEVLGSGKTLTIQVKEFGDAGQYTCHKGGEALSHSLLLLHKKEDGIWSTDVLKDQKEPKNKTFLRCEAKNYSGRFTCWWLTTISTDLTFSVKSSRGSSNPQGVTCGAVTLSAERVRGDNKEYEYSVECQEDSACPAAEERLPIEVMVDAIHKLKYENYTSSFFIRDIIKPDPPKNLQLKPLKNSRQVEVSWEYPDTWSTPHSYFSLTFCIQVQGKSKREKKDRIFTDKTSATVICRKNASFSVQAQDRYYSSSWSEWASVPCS

[3] = target: T3, human dimeric IL-23 (eBiosciences 34-8239) (human, UniProt P29460 23-328; Q9NPF7 20-189); test: SPR, bispecific held on captured IL-6 (~240 RU), human dimeric IL-23 as analyte (3-25 nM)
T3 construct: Baculovirus-derived heterodimer; the bioassay used eBioscience 14-8239 or Humanzyme HZ-1049; also called heterodimeric recombinant IL-23; eBio IL23
T3 sequence (looked up) 1: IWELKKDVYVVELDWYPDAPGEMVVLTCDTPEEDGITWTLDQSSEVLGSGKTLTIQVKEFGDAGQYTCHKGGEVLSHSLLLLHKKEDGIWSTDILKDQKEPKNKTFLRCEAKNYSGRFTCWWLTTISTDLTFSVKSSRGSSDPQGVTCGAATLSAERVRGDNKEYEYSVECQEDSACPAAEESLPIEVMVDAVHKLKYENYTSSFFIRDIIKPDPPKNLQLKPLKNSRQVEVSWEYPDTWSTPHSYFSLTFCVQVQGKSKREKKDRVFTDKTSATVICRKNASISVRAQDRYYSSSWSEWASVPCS
T3 sequence (looked up) 2: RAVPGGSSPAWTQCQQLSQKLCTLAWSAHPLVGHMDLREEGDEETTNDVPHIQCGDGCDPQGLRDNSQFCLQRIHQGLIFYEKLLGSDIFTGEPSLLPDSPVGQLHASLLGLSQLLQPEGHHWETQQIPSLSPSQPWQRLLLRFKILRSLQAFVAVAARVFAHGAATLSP
Protocol: SPR of bispecific scFvs were carried out as previously described for measuring the anti-IL-6 moiety; however, protocol modifications were required in order to determine the binding kinetics of the anti-IL-23 scFv, 31A12. Briefly, IL-23 binding by the bispecific was performed by first immobilizing the bispecific with IL-6 as described, but at a constant density (˜240 RU). Binding and dissociation of a recombinant human dimeric IL-23 (34-8239, eBiosciences, San Diego, Calif.) was assayed in concentrations ranging from 3 to 25 nM using the same parameters detailed above.

monkey IL-12 (macaque) [4] = target: T2, monkey IL-12 (macaque); test: cell-based or functional assay; remark: listed apart in the source
3×FLAG-IL-6 [5] = target: T4, 3×FLAG-IL-6 (human); test: SPR, 3×FLAG-IL-6 captured by anti-FLAG M2 on protein G, bispecific as analyte
T4 construct: it may hold the pre-pro-trypsin leader
T4 sequence (chain, as listed by the source limits assumed): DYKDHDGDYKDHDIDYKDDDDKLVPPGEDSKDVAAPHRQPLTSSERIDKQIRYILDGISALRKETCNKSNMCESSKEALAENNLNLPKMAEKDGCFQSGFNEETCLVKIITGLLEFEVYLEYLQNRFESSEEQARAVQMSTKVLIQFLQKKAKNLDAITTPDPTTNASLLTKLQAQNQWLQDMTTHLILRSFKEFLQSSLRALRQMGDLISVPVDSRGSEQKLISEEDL

human IL-6 [6] = target: T1, human IL-6; test: cell-based or functional assay; remark: listed apart in the source
[7] = target: T3, human dimeric IL-23 (eBiosciences …); test: cell-based or functional assay
3×FLAG-IL-6 [8] = target: T4, 3×FLAG-IL-6; test: SPR, 3×FLAG-IL-6 captured by anti-FLAG M2 on protein G, scFv as analyte (1-100 nM)
human IL-6 [9] = target: T1, human IL-6; test: cell-based or functional assay; remark: listed apart in the source
3×FLAG-IL-6 [10] = target: T4, 3×FLAG-IL-6; test: SPR, 3×FLAG-IL-6 captured by anti-FLAG M2 on protein G, scFv as analyte (1-100 nM); remark: listed apart in the source
Protocol: Equilibrium constants for scFvs were determined as previously described; however, the protocol was modified so that an epitope tagged IL-6 was captured on the chip surface and the dissociation of anti-IL-6 scFvs from IL-6 was monitored. Briefly, anti-FLAG® M2 antibody (200472, Agilent Technologies, Santa Clara, Calif.) was bound to Protein G, and then 3×FLAG-IL-6 was captured by the anti-FLAG antibody. The anti-IL-6 scFvs were assayed over a range of concentrations between 1 and 100 nM.
Anti IL-6 scFvs, humanized using the one step method, retained IL-6 neutralization activity when expressed in mammalian cells, as shown for 13A8 (FIG. 11A and FIG. 11B), 28D2 and 9C8 v3-1 (FIG. 11C).

human IL-6 [11] = target: T1, human IL-6; test: cell-based or functional assay; remark: listed apart in the source
3×FLAG-IL-6 [12] = target: T4, 3×FLAG-IL-6; test: SPR, 3×FLAG-IL-6 captured by anti-FLAG M2 on protein G, scFv as analyte

B1: 13A8c-PEG20 (scFv)
scFv: DIQLTQSPSFLSASVGDRVTITCQASQSISNELSWYQQKPGKAPKLLIYRASTLTSGVPSRFSGSGSGTEFTLTISSLQPEDFATYYCQQGYNSNDVDNVFGGGTKVEIKGGGGSGGGGSGGGGSGGGGSEVQLVESGGGLVQPGGSLRLSCTVSGIDLSSYDLSWVRQAPGKGLEWVGYIYTDSSTWYANWAKGRFTISRDNSKNTLYLQLNSLRAEDTAVYYCARGSTDYAFDTRLDLWGQGTLVTVSS
modifications: C-terminal azidohomoalanine (Aha) conjugated to 20 kDa linear PEG bis-alkyne
EC50 (pg/mL) of the folded scFv-PEG (human IL-6 [1]): 93 pg/mL

B2: 13A8L-PEG20 (scFv)
scFv: DIQLTQSPSFLSASVGDRVTITCQASQSISNELSWYQQKPGKAPKLLIYRASTLTSGVPSRFSGSGSGTEFTLTISSLQPEDFATYYCQQGYNSNDVDNVFGGGTKVEIKGGGGSGGGGSGGGGSGGGGSEVQLVESGGGLVQPGGSLRLSCTVSGIDLSSYDLSWVRQAPGKGLEWVGYIYTDSSTWYANWAKGRFTISRDNSKNTLYLQLNSLRAEDTAVYYCARGSTDYAFDTRLDLWGQGTLVTVSS
modifications: azidohomoalanine (Aha) in the linker (13A8L) conjugated to 20 kDa linear PEG bis-alkyne
EC50 (pg/mL) of the folded scFv-PEG (human IL-6 [1]): 278 pg/mL

B3: 13A8n-PEG20 (scFv)
scFv: DIQLTQSPSFLSASVGDRVTITCQASQSISNELSWYQQKPGKAPKLLIYRASTLTSGVPSRFSGSGSGTEFTLTISSLQPEDFATYYCQQGYNSNDVDNVFGGGTKVEIKGGGGSGGGGSGGGGSGGGGSEVQLVESGGGLVQPGGSLRLSCTVSGIDLSSYDLSWVRQAPGKGLEWVGYIYTDSSTWYANWAKGRFTISRDNSKNTLYLQLNSLRAEDTAVYYCARGSTDYAFDTRLDLWGQGTLVTVSS
modifications: N-terminal azidohomoalanine (Aha) conjugated to 20 kDa linear PEG bis-alkyne
EC50 (pg/mL) of the folded scFv-PEG (human IL-6 [1]): 1980 pg/mL

B4: 31A12c-PEG-13A8c bispecific (bispecific antibody)
scFv 1: DIQLTQSPSFLSASVGDRVTITCQASEDIESYLAWYQQKPGKAPKLLIYSASTLTSGVPSRFSGSGSGTEFTLTISSLQPEDFATYYCLGADDTTTVFGGGTKVEIKGGGGSGGGGSGGGGSGGGGSEVQLVESGGGLVQPGGSLRLSCTASGFSLSSYWLTWVRQAPGKGLEWVGTIATSSTYYASWAKGRFTISRDNSKNTLYLQLNSLRAEDTAVYYCARGLTTDYDLDLWGQGTLVTVSS
scFv 2: DIQLTQSPSFLSASVGDRVTITCQASQSISNELSWYQQKPGKAPKLLIYRASTLTSGVPSRFSGSGSGTEFTLTISSLQPEDFATYYCQQGYNSNDVDNVFGGGTKVEIKGGGGSGGGGSGGGGSGGGGSEVQLVESGGGLVQPGGSLRLSCTVSGIDLSSYDLSWVRQAPGKGLEWVGYIYTDSSTWYANWAKGRFTISRDNSKNTLYLQLNSLRAEDTAVYYCARGSTDYAFDTRLDLWGQGTLVTVSS
modifications: C-terminal azidohomoalanine (Aha) joined through a linear 20 kDa PEG to the Aha of the other scFv
notes: also called 31A12c-20KPEG-13A8c; 13A8c-PEG-31A12c
IC50 (read off the curve) (interferon-gamma from NK92 cells, OD450) (monkey IL-12 (macaque) [2]): ~10 ng/mL | Kd [3]: 0.0918 nM | koff [3]: 7.11e-05 s⁻¹ | kon [3]: 773000 M⁻¹ s⁻¹ | IC50 (read off the curve) (monkey IL-12 (macaque) [4]): ~10 ng/mL and ~20 ng/mL | Kd (3×FLAG-IL-6 [5]): 0.215 nM | koff (3×FLAG-IL-6 [5]): 5.14e-05 s⁻¹ | kon (3×FLAG-IL-6 [5]): 290000 M⁻¹ s⁻¹ | Anti IL-6 EC50, batch A (human IL-6 [6]): 0.082 ng/mL | Anti IL-6 EC50, batch B (human IL-6 [6]): 0.064 ng/mL | Anti IL-6 EC50, batch C (human IL-6 [6]): 0.136 ng/mL | Anti IL-23 EC50, batch A [7]: 2.94 ng/mL | Anti IL-23 EC50, batch B [7]: 1.19 ng/mL | Anti IL-23 EC50, batch C [7]: 2.04 ng/mL

B5: 28D2 humanized scFv (mammalian expressed) (scFv)
scFv: DIQLTQSPSFLSASVGDRVTITCQASEDLFSSLAWYQQKPGKAPKLLIYSASTLASGVPSRFSGSGSGTDFTLTISSLQPEDFATYYCLGLYYYLTPDPIYGFGGGTKVEIKGGGGSGGGGSGGGGSGGGGSEVQLVESGGGLVQPGGSLRLSCTVSGLSLSKNAIAWVRQAPGKGLEWVGIIYAGGATTYASWAKGRFTISRDNSKNTLYLQMNSLRAEDTAVYYCAREYAGDSYYTGYTQLDLWGQGTLVTVSSGPPPPHHHHHH
notes: also called 28D2 scFv
Kd (3×FLAG-IL-6 [8]): 0.109 nM | koff (3×FLAG-IL-6 [8]): 0.0001 s⁻¹ | kon (3×FLAG-IL-6 [8]): 918000 M⁻¹ s⁻¹ | EC50, inhibition of IL-6 induced B9 cell proliferation (human IL-6 [9]): 0.043 ng/mL | Kd (3×FLAG-IL-6 [10]): 0.109 nM | koff (3×FLAG-IL-6 [10]): 0.0001 s⁻¹ | kon (3×FLAG-IL-6 [10]): 918000 M⁻¹ s⁻¹

B6: 13A8 humanized scFv (mammalian expressed) (scFv)
scFv: DIQLTQSPSFLSASVGDRVTITCQASQSISNELSWYQQKPGKAPKLLIYRASTLTSGVPSRFSGSGSGTEFTLTISSLQPEDFATYYCQQGYNSNDVDNVFGGGTKVEIKGGGGSGGGGSGGGGSGGGGSEVQLVESGGGLVQPGGSLRLSCTVSGIDLSSYDMSWVRQAPGKGLEWVGYIYTDSSTWYANWAKGRFTISRDNSKNTLYLQMNSLRAEDTAVYYCARGSTDYAFDTRLDLWGQGTLVTVSSGPPPPHHHHHH
notes: also called humanized scFv 13A8; mammalian 13A8 scFv
EC50, neutralization of IL-6 (human IL-6 [11]): 0.059 ng/mL | EC50, inhibition of IL-6 induced B9 cell proliferation (human IL-6 [9]): 0.064 ng/mL | Kd (3×FLAG-IL-6 [10]): 0.0982 nM | koff (3×FLAG-IL-6 [10]): 8.64e-05 s⁻¹ | kon (3×FLAG-IL-6 [10]): 876000 M⁻¹ s⁻¹

B7: 9C8 humanized scFv (9C8 Hum scFv v3-1) (scFv)
scFv: DIQMTQSPSSVSASVGDRVTITCQASQSISNELSWYQQKPGKAPKLLIYRTSTLASGVPSRFSGSGSGTDFTLTISSLQPEDFATYYCQQGYNSNDVDNVFGGGTKVEIKGGGGSGGGGSGGGGSGGGGSEVQLVESGGGLVQPGGSLRLSCTVSGIDLSSYDMSWVRQAPGKGLEWVGYIYTDSSTYYANWAKGRFTISRDNSKNTLYLQMNSLRAEDTAVYYCARGSTDYAFDTRLDLWGQGTLVTVSSGPPPPPHHHHHH
notes: the sentence before it names 9C8 v3-1; purified by 6×His tag; also called 9C8 scFv v3-1; 9C8v3-1
EC50, inhibition of IL-6 induced B9 cell proliferation (human IL-6 [9]): 0.319 ng/mL | Kd (3×FLAG-IL-6 [10]): 0.089 nM | koff (3×FLAG-IL-6 [10]): 4.03e-05 s⁻¹ | kon (3×FLAG-IL-6 [10]): 447000 M⁻¹ s⁻¹

B8: 28D2-C Aha (scFv)
scFv: MAHHHHHHPPPPAAADIQLTQSPSFLSASVGDRVTITCQASEDLFSSLAWYQQKPGKAPKLLIYSASTLASGVPSRFSGSGSGTDFTLTISSLQPEDFATYYCLGLYYYLTPDPIYGFGGGTKVEIKGGGGSGGGGSGGGGSGGGGSEVQLVESGGGLVQPGGSLRLSCTVSGLSLSKNAIAWVRQAPGKGLEWVGIIYAGGATTYASWAKGRFTISRDNSKNTLYLQLNSLRAEDTAVYYCAREYAGDSYYTGYTQLDLWGQGTLVTVSSGM
modifications: azidohomoalanine (Aha) in place of the single Met, at the C terminus
Kd (3×FLAG-IL-6 [8]): 0.052 nM | koff (3×FLAG-IL-6 [8]): 7.6e-05 s⁻¹ | kon (3×FLAG-IL-6 [8]): 1.45e+06 M⁻¹ s⁻¹ | Kd (3×FLAG-IL-6 [12]): 0.0674 nM | koff (3×FLAG-IL-6 [12]): 7.1e-05 s⁻¹ | kon (3×FLAG-IL-6 [12]): 1.05e+06 M⁻¹ s⁻¹
